This is an account of results in PMC7659713 (The Journal of Cell Biology, 2020).

The data set concerns the molecule itself. The experiment in a line: native gel or EMSA.

B1: FLAG-Pex14p(156–376)SD (domain or fragment, rat, UniProt Q642G4 156-376, looked up)
chain: SGSVAQTVTQVQTTLASVQELLRQQQQKVQELAHELAAAKATTSTNWILESQNINELKSEINSLKGLLLNRRQFPPDPSAPKIPSWQIPVKSPSPSSPAAVNHHSSSDISPVSNESPSSSPGKDGHSPEGSTATYRLLGPQEEGEGVVDVKGQVRMEVQGEEEKREDEEGEEDEDDDVSHVDEEDVLGVQREDRRGGDGQINEQVEKLRRPEGASNESERD
For the protein B1, the “fold formation of homo-oligomer against WT or SA mutant” value was approximately 1.5 fold.
